From the supplement of paper PMC10567573

B1: LOXL2 (parent)
chain: RLLRFSSQIHNNGQSDFRPKNGRH

Variants of: B1
Experiment: protein stability index of a GFP-peptide fusion (GPS, HEK-293T) (PSI 1-6); higher = more stable
Settings: c terminus: a fixed tail appended
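Also: lentivirally expressed fusions sorted by FACS into six bins by GFP to DsRed ratio, PSI derived from sequencing read proportions per bin multiplied by bin number.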

Q: With RLLRFSSQIHNNGQSDFRPKNHRH [G22H] as the variant, how does the protein stability index read?
A: 2.4

Q: Which protein stability index does the source give for RLLRFSSQIHNNGQSDFRPKNIRH [G22I] here?
A: 2.19

Q: Which protein stability index does the source give for RLLRFSSQIHNNGQSDFRPKNCRH [G22C] here?
A: 2.4

Q: Which protein stability index does the source give for RLLRFSSQIHNNGQSDFRPKNERH [G22E] here?
A: 2.4

Q: For RLLRFSSQIHCNGQSDFRPKNGRH [N11C], which protein stability index is on record?
A: 2.17

Q: For RLLRFSSQIHSNGQSDFRPKNGRH [N11S], which protein stability index is on record?
A: 2.54

Q: With RLLRFSSQIHTNGQSDFRPKNGRH [N11T] as the variant, how does the protein stability index read?
A: 2.7

Q: Which protein stability index does the source give for RLLRFSSQIHHNGQSDFRPKNGRH [N11H] here?
A: 2.8

Q: For RLLRFSSQIHNNGQSDFRPKYGRH [N21Y], which protein stability index is on record?
A: 1.77

Q: Which protein stability index does the source give for RLLRFSSQIHNNGQSDFRPKTGRH [N21T] here?
A: 2.37

Q: With RLLRFSSQIHNNGQSDFRPKCGRH [N21C] as the variant, how does the protein stability index read?
A: 2.13

Q: Which protein stability index does the source give for RLLRFSSQIHNNGQSDFRPKIGRH [N21I] here?
A: 1.79

Q: For RLLRFSSQIHNNGQSDFRPKVGRH [N21V], which protein stability index is on record?
A: 2.41

Q: Which protein stability index does the source give for SLLRFSSQIHNNGQSDFRPKNGRH [R1S] here?
A: 2.58

Q: Which protein stability index does the source give for QLLRFSSQIHNNGQSDFRPKNGRH [R1Q] here?
A: 2.48

Q: Which protein stability index does the source give for ELLRFSSQIHNNGQSDFRPKNGRH [R1E] here?
A: 2.41

Q: For HLLRFSSQIHNNGQSDFRPKNGRH [R1H], which protein stability index is on record?
A: 2.67

Q: For MLLRFSSQIHNNGQSDFRPKNGRH [R1M], which protein stability index is on record?
A: 2.66

Q: With RLLRFSSQIHNNGQSDFRWKNGRH [P19W] as the variant, how does the protein stability index read?
A: 2.76

Q: For RLLRFSSQIHNNGQSDFRTKNGRH [P19T], which protein stability index is on record?
A: 2.32

Q: Which protein stability index does the source give for RLLRFSSQIHNNGQSDFRLKNGRH [P19L] here?
A: 2.54

Q: Which protein stability index does the source give for RLLRFSSQIHNNGQSDFRCKNGRH [P19C] here?
A: 2.52

Q: For RLLRFSSQIHNNGQSDFRFKNGRH [P19F], which protein stability index is on record?
A: 2.13

Q: Which protein stability index does the source give for RLLRFSSQIHNNGQSDFRDKNGRH [P19D] here?
A: 2.9

Q: With RLLRFSSQIHNNGQSDFRHKNGRH [P19H] as the variant, how does the protein stability index read?
A: 2.54

Q: For RLLRFSSQIHNNGQSDFRVKNGRH [P19V], which protein stability index is on record?
A: 2.04

Q: Which protein stability index does the source give for RLLRFSSQIHNNGQSDFFPKNGRH [R18F] here?
A: 2.6

Q: With RLLRFSSQIHNNGQSDFHPKNGRH [R18H] as the variant, how does the protein stability index read?
A: 2.45

Q: With RLLRFSSQIHNNGQSDFAPKNGRH [R18A] as the variant, how does the protein stability index read?
A: 3.21

Q: For RLLRFSSQIHNNGQSDFLPKNGRH [R18L], which protein stability index is on record?
A: 2.31

Q: With RLLRFSSQIHNNGQSDFMPKNGRH [R18M] as the variant, how does the protein stability index read?
A: 2.67

Q: For RLLRFSSQIHNNGQSDFSPKNGRH [R18S], which protein stability index is on record?
A: 3.05

Q: Which protein stability index does the source give for RLLRFSSQIHNNGQSDFVPKNGRH [R18V] here?
A: 3.04

Q: With RLLGFSSQIHNNGQSDFRPKNGRH [R4G] as the variant, how does the protein stability index read?
A: 3.51

Q: Which protein stability index does the source give for RLLEFSSQIHNNGQSDFRPKNGRH [R4E] here?
A: 2.87

Q: With RLLMFSSQIHNNGQSDFRPKNGRH [R4M] as the variant, how does the protein stability index read?
A: 2.81

Q: With RLLCFSSQIHNNGQSDFRPKNGRH [R4C] as the variant, how does the protein stability index read?
A: 2.87

Q: Which protein stability index does the source give for RLLAFSSQIHNNGQSDFRPKNGRH [R4A] here?
A: 2.87

Q: Which protein stability index does the source give for RLLIFSSQIHNNGQSDFRPKNGRH [R4I] here?
A: 2.48

Q: With RLLQFSSQIHNNGQSDFRPKNGRH [R4Q] as the variant, how does the protein stability index read?
A: 2.57

Q: Which protein stability index does the source give for RLLRFSSQPHNNGQSDFRPKNGRH [I9P] here?
A: 3.44

Q: With RLLRFSSQKHNNGQSDFRPKNGRH [I9K] as the variant, how does the protein stability index read?
A: 2.31

Q: With RLLRFSSQVHNNGQSDFRPKNGRH [I9V] as the variant, how does the protein stability index read?
A: 2.99

Q: For RLLRFSSQYHNNGQSDFRPKNGRH [I9Y], which protein stability index is on record?
A: 2.4

Q: With RLLRFSSQLHNNGQSDFRPKNGRH [I9L] as the variant, how does the protein stability index read?
A: 2.12

Q: For RLLRFSSQEHNNGQSDFRPKNGRH [I9E], which protein stability index is on record?
A: 3.93

Q: Which protein stability index does the source give for RLLRFSSQDHNNGQSDFRPKNGRH [I9D] here?
A: 3.5
